Target: actin filaments (UniProt P68135 1-377)
Test: co-sedimentation

B1: myosin V 1IQ monomer (domain or fragment)
chain: MAASELYTKYARVWIPDPEEVWKSAELLKDYKPGDKVLQLRLEEGKDLEYCLDPKTKELPPLRNPDILVGENDLTALSYLHEPAVLHNLKVRFIDSKLIYTYCGIVLVAINPYEQLPIYGEDIINAYSGQNMGDMDPHIFAVAEEAYKQMARDERNQSIIVSGESGAGKTVSAKYAMRYFATVSGSASEANVEEKVLASNPIMESIGNAKTTRNDNSSRFGKYIEIGFDKRYRIIGANMRTYLLEKSRVVFQAEEERNYHIFYQLCASAALPEFKTLRLGNANYFHYTKQGGSPVIDGIDDAKEMVNTRQACTLLGISDSYQMGIFRILAGILHLGNVEFASRDSDSCAIPPKHDPLTIFCDLMGVDYEEMAHWLCHRKLATATETYIKPISKLHAINARDALAKHIYANLFNWIVDHVNKALHSTVKQHSFIGVLDIYGFETFEINSFEQFCINYANEKLQQQFNMHVFKLEQEEYMKEQIPWTLIDFYDNQPCINLIEAKMGVLDLLDEECKMPKGSDDTWAQKLYNTHLNKCALFEKPRLSNKAFIIKHFADKVEYQCEGFLEKNKDTVYEEQIKVLKSSKKFKLLPELFQDEEKAISPTSATPSGRVPLSRTPVKPAKARPGQTSKEHKKTVGHQFRNSLHLLMETLNATTPHYVRCIKPNDFKFPFTFDEKRAVQQLRACGVLETIRISAAGFPSRWTYQEFFSRYRVLMKQKDVLSDRKQTCKNVLEKLILDKDKYQFGKTKIFFRAGQVAYLEKIRADKLRAACIRIQKTIRGWLMRKKYMRMRR
Kd: 10 µM
